In paper PMC11161652, “ASXLs binding to the PHD2/3 fingers of MLL4 provides a mechanism for the recruitment of BAP1 to active enhancers” (Nature Communications, 2024):

Experiments:
[1] = target: T1, PHD2 and PHD3 fingers of human MLL4 (aa 227-324) (human, UniProt O14686 227-324)
T1 chain: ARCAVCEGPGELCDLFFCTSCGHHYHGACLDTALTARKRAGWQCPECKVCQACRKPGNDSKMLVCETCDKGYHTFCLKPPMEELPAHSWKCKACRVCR

[2] = target: T2, PHD2 and PHD3 fingers of human MLL3 (aa 342-439) (human, UniProt Q8NEZ4 342-439); experiment: other fluorescence titration; tryptophan fluorescence, 25 °C; 1.0 µM MLL4 PHD2/3 or MLL3 PHD2/3 with increasing peptide; excitation 295 nm; 20 mM Tris pH 7.2, 150 mM NaCl, 1 mM TCEP, 0.02% Tween20; average of three measurements; details: both partners purified
T2 construct: PHD2 and PHD3 fingers of human MLL3 (KMT2C), aa 342-439; 15N-labelled for NMR titrations; also used unlabelled as the titrant against MLL3 PHD4; also called MLL3_(PHD2/3); MLL3 PHD2/3; source: E. coli BL21-CodonPlus, purified (glutathione agarose, PreScission cleavage; unlabeled proteins also SEC)
T2 sequence (looked up): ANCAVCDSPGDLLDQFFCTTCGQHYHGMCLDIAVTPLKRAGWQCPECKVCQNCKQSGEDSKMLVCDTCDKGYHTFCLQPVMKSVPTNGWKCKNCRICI

[3] = target: T3, PHD2 and PHD3 fingers of human MLL4 (aa 227-324) (human, UniProt O14686 227-324); experiment: not stated; fluorescence spectroscopy or NMR: the legends of Fig. 3c and Fig. 4b say that values marked (a) are from NMR and the others from fluorescence; the text does not tell which for these pairs; details: both partners purified
T3 construct: PHD2 and PHD3 fingers of human MLL4 (KMT2D), aa 227-324; also called MLL4_(PHD2/3); MLL4 PHD2/3; source: E. coli BL21-CodonPlus, purified (glutathione agarose, PreScission cleavage; unlabeled proteins also SEC)
T3 sequence (looked up): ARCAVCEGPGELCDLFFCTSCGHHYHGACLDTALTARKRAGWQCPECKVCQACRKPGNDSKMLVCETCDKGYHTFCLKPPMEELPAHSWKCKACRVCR

[4] = target: T4, PHD2 and PHD3 fingers of human MLL3 (aa 342-439) (human, UniProt Q8NEZ4 342-439)
T4 chain: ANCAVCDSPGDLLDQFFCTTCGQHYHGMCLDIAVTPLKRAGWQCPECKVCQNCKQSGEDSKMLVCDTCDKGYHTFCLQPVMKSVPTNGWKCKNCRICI

Kd [1]: 11 µM
binding result [2]: binds
fold reduction in binding against the wild type ASXL2 peptide [3]: ~16 fold
Kd [4]: 10.5 µM
B1: ASXL2 peptide (aa 650-670) R655I (peptide, UniProt Q76L83 650-670, looked up)
peptide: NRTGAITLADIKAKAQLVKAQ
notes: ASXL2, residues 650-670; R655I is said to be associated with large intestine cancer; also called R655I mutant of ASXL2; source: synthetic peptide (SynPeptide)
